± gives the uncertainty stated by the source.
B1: Formin-binding protein 4, residues 200 to 261; numbered along this chain, Q8N3X1 (parent)
chain: SGWQYDTQCSLAGVGIEMGDWQEVWDENTGCYYYWNTQTNEVTWELPQYLATQVQGLQHYQP
B2: SAM and SH3 domain-containing protein 1, residues 630 to 700; numbered along this chain, O94885 (parent)
chain: GRPPQPKSVEDLLDRINLKEHMPTFLFNGYEDLDTFKLLEEEDLDELNIRDPEHRAVLLTAVELLQEYDSN

Variants of: B1
Assay: abundance fitness (aPCA) (normalised: wild type 0, dead -1); higher = more abundant; growth selection in yeast, the domain comes from the species named
Conditions: Homo sapiens

Abundance fitness, by site and new letter:
T52: V -0.011 ± 0.067, W -0.295 ± 0.097, Y -0.248 ± 0.13
Q53: A -0.407 ± 0.11, C -0.738 ± 0.27, D -0.314 ± 0.16, E -0.588 ± 0.14, F -0.621 ± 0.13, G -0.688 ± 0.12, H -0.68 ± 0.17, I -0.611 ± 0.19, K -0.188 ± 0.13, L -0.457 ± 0.073, M -0.624 ± 0.14, P -0.663 ± 0.15, R -0.215 ± 0.086, S -0.765 ± 0.13, T -0.606 ± 0.12, V -0.679 ± 0.099, W -0.634 ± 0.22
V54: A -0.336 ± 0.088, D -0.644 ± 0.16, E -0.741 ± 0.15, F -0.214 ± 0.099, G -0.546 ± 0.07, H -0.716 ± 0.19, I 0.1 ± 0.093, K -0.589 ± 0.14, L -0.094 ± 0.066, M 0.055 ± 0.094, N -0.48 ± 0.19, P -0.741 ± 0.16, Q -0.754 ± 0.16, R -0.625 ± 0.086, S -0.603 ± 0.092, T -0.403 ± 0.11, Y -0.274 ± 0.17
Q55: A -0.012 ± 0.084, C 0.121 ± 0.18, D -0.005 ± 0.19, E -0.268 ± 0.099, F -0.018 ± 0.17, H -0.482 ± 0.26, I -0.321 ± 0.17, K -0.173 ± 0.087, L -0.184 ± 0.064, M -0.102 ± 0.085, N -0.186 ± 0.19, P -0.647 ± 0.11, R -0.12 ± 0.064, S -0.177 ± 0.077, T -0.18 ± 0.092, V -0.173 ± 0.083, W 0.039 ± 0.081, Y -0.389 ± 0.16
G56: A -0.018 ± 0.078, C -0.255 ± 0.13, D 0.177 ± 0.091, E 0.224 ± 0.086, F -0.464 ± 0.12, H -0.186 ± 0.17, I -0.425 ± 0.13, L -0.209 ± 0.058, M -0.367 ± 0.11, N 0.051 ± 0.12, P -0.178 ± 0.089, Q 0.076 ± 0.09, R 0.004 ± 0.066, S -0.031 ± 0.06, T 0.015 ± 0.088, V -0.219 ± 0.078, W -0.16 ± 0.11, Y -0.401 ± 0.15
L57: C -0.305 ± 0.12, D -0.043 ± 0.12, E -0.093 ± 0.087, F 0.02 ± 0.1, G -0.15 ± 0.061, H -0.084 ± 0.1, I -0.136 ± 0.12, K 0.312 ± 0.083, M -0.159 ± 0.086, N -0.212 ± 0.1, P -0.075 ± 0.086, Q 0.047 ± 0.078, R -0.029 ± 0.056, S -0.084 ± 0.073, V -0.047 ± 0.063, W -0.349 ± 0.078, Y -0.315 ± 0.13
Q58: A -0.019 ± 0.075, C -0.293 ± 0.12, E -0.059 ± 0.088, F -0.195 ± 0.091, G -0.086 ± 0.056, H -0.005 ± 0.14, K 0.127 ± 0.093, L -0.36 ± 0.072, M -0.067 ± 0.086, N 0.083 ± 0.14, P -0.209 ± 0.11, R -0.242 ± 0.066, T -0.139 ± 0.093, W -0.421 ± 0.091, Y -0.256 ± 0.16
H59: A 0.008 ± 0.073, E 0.137 ± 0.079, F -0.062 ± 0.084, G -0.017 ± 0.076, I 0.045 ± 0.097, K 0.188 ± 0.078, L -0.083 ± 0.052, M 0.082 ± 0.067, N 0.033 ± 0.12, P -0.115 ± 0.077, Q 0.083 ± 0.084, R -0.125 ± 0.062, S -0.029 ± 0.06, T 0.147 ± 0.07, Y -0.296 ± 0.08
Y60: A 0.115 ± 0.068, C 0.035 ± 0.077, D 0.19 ± 0.1, E 0.117 ± 0.085, F 0.124 ± 0.087, G 0.103 ± 0.058, H 0.092 ± 0.099, I 0.153 ± 0.092, K 0.038 ± 0.099, L 0.086 ± 0.057, M 0.177 ± 0.081, N 0.01 ± 0.13, P 0.113 ± 0.09, Q 0.123 ± 0.12, R 0.112 ± 0.054, S 0.066 ± 0.062, T 0.101 ± 0.081, V 0.099 ± 0.057, W -0.068 ± 0.081
Q61: A 0.115 ± 0.064, C -0.203 ± 0.1, D -0.034 ± 0.1, E 0.065 ± 0.08, F -0.263 ± 0.1, G -0.018 ± 0.069, H -0.266 ± 0.12, I -0.299 ± 0.12, K -0.046 ± 0.093, L -0.132 ± 0.054, M -0.16 ± 0.093, N -0.108 ± 0.15, P -0.201 ± 0.1, R -0.101 ± 0.065, S -0.083 ± 0.069, T 0.263 ± 0.086, W -0.423 ± 0.1, Y -0.287 ± 0.14
P62: A 0.124 ± 0.11, C -0.006 ± 0.2, E -0.469 ± 0.42, F -0.103 ± 0.26, G -0.028 ± 0.11, H 0.084 ± 0.32, I -0.268 ± 0.21, K 0.194 ± 0.17, L -0.011 ± 0.14, M 0.218 ± 0.32, Q -0.237 ± 0.16, R -0.29 ± 0.093, S 0.045 ± 0.11, T -0.009 ± 0.12, V -0.423 ± 0.16, Y -0.161 ± 0.23

Variants of: B2
Assay: as above
Conditions: Homo sapiens

Abundance fitness, by site and new letter:
G1: A -0.064 ± 0.055, C -0.067 ± 0.085, D 0.195 ± 0.057, E 0.166 ± 0.074, H -0.161 ± 0.12, I 0.047 ± 0.082, K 0.163 ± 0.096, L 0.036 ± 0.066, M 0.013 ± 0.098, N 0.17 ± 0.082, P -0.137 ± 0.27, Q 0.109 ± 0.16, R -0.203 ± 0.07, T 0.016 ± 0.087, V -0.049 ± 0.051, Y 0.098 ± 0.075
R2: A -0.489 ± 0.072, C -0.971 ± 0.13, D -0.137 ± 0.063, E -0.634 ± 0.1, F -0.21 ± 0.066, G -0.509 ± 0.077, H -0.301 ± 0.085, I -0.011 ± 0.047, K -0.212 ± 0.05, L -0.246 ± 0.054, M -0.442 ± 0.06, P -0.632 ± 0.091, Q -0.412 ± 0.076, S -0.446 ± 0.056, T -0.239 ± 0.048, V -0.472 ± 0.064, W -0.643 ± 0.11, Y -0.317 ± 0.069
P3: A -0.115 ± 0.043, C -0.073 ± 0.052, D 0.2 ± 0.053, E 0.04 ± 0.056, F 0.044 ± 0.048, H -0.094 ± 0.047, I 0.035 ± 0.047, K -0.279 ± 0.055, L -0.036 ± 0.036, M 0.008 ± 0.049, N -0.038 ± 0.049, Q -0.118 ± 0.051, R -0.302 ± 0.046, T -0.014 ± 0.041, V 0.035 ± 0.042, W -0.132 ± 0.062, Y 0.005 ± 0.047
P4: A 0.046 ± 0.051, C -0.088 ± 0.072, D 0.343 ± 0.055, E 0.237 ± 0.067, F 0.2 ± 0.05, H -0.01 ± 0.054, I 0.058 ± 0.057, M 0.078 ± 0.059, N 0.09 ± 0.05, Q 0.159 ± 0.056, R -0.198 ± 0.057, S -0.03 ± 0.045, T 0.101 ± 0.046, W -0.008 ± 0.065, Y 0.067 ± 0.049
Q5: A -0.291 ± 0.053, C 0.007 ± 0.064, D -0.783 ± 0.12, E -0.481 ± 0.098, F 0.068 ± 0.048, G -0.694 ± 0.093, H -0.033 ± 0.055, I -0.02 ± 0.048, K -0.258 ± 0.061, L -0.345 ± 0.043, M -0.033 ± 0.048, N -0.113 ± 0.055, P -0.276 ± 0.055, R -0.25 ± 0.049, S -0.334 ± 0.047, T -0.365 ± 0.057, V -0.149 ± 0.048, Y 0.202 ± 0.049
P6: A -0.421 ± 0.056, C -0.507 ± 0.071, D -0.158 ± 0.058, E -0.481 ± 0.084, F 0.085 ± 0.046, G -0.655 ± 0.061, H -0.607 ± 0.085, I -0.151 ± 0.056, K -0.63 ± 0.1, L -0.434 ± 0.045, M -0.264 ± 0.07, N -0.792 ± 0.11, Q -0.726 ± 0.1, S -0.533 ± 0.049, T -0.653 ± 0.072, V -0.168 ± 0.044, W -0.092 ± 0.052, Y 0.128 ± 0.049
K7: A -0.066 ± 0.046, C -0.533 ± 0.066, D -0.213 ± 0.06, E -0.002 ± 0.069, F -0.5 ± 0.053, H -0.308 ± 0.047, I -0.086 ± 0.042, L -0.323 ± 0.041, M -0.309 ± 0.066, N -0.142 ± 0.041, P -0.679 ± 0.063, Q -0.119 ± 0.067, S -0.097 ± 0.038, T 0.095 ± 0.04, V -0.126 ± 0.043, W -0.873 ± 0.12
S8: A -0.889 ± 0.093, C -0.701 ± 0.087, D -0.316 ± 0.076, E -1.17 ± 0.25, F -0.984 ± 0.11, G -0.536 ± 0.076, H -0.899 ± 0.09, K -0.759 ± 0.11, L -0.818 ± 0.067, M -1.03 ± 0.14, N -0.305 ± 0.053, P -0.758 ± 0.087, Q -0.55 ± 0.1, R -0.836 ± 0.082, T -0.244 ± 0.052, V -1.02 ± 0.1, W -1.35 ± 0.24, Y -0.899 ± 0.085
V9: A -0.844 ± 0.073, C -0.892 ± 0.13, D -0.736 ± 0.089, E -0.876 ± 0.13, G -0.868 ± 0.081, H -0.909 ± 0.079, I -0.235 ± 0.046, K -0.701 ± 0.077, L 0.032 ± 0.035, M -0.52 ± 0.07, P -0.632 ± 0.063, Q -0.796 ± 0.087, R -0.969 ± 0.084, T -0.701 ± 0.056, W -1.05 ± 0.17, Y -0.883 ± 0.087
E10: A -0.145 ± 0.046, C -0.463 ± 0.071, F -0.443 ± 0.054, G -0.434 ± 0.063, I -0.446 ± 0.056, K -0.407 ± 0.066, L -0.532 ± 0.045, M -0.398 ± 0.06, N -0.53 ± 0.061

Source: the Human Domainome abundance scans (Beltran et al. 2025)
